Results reported in patent US20250122285A1 (ANWITA BIOSCIENCES, published 2025).

Molecular target: T1, CD122/CD132 heterodimer (human, UniProt P14784 27-239; P31785 23-262)
T1 construct: Bought from ACROBIO as 'AVT-TAG CD122/CD132 heterodimer'; also called AVT-TAG CD122/CD132 heterodimer; IL-2Rβ/γ complex
T1 sequence 1: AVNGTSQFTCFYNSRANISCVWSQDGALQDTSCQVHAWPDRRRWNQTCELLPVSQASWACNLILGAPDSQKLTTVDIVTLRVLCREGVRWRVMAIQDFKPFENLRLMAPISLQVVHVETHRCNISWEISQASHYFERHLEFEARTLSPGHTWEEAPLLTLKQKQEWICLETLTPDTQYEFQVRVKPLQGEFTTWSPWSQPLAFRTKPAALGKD
T1 sequence 2: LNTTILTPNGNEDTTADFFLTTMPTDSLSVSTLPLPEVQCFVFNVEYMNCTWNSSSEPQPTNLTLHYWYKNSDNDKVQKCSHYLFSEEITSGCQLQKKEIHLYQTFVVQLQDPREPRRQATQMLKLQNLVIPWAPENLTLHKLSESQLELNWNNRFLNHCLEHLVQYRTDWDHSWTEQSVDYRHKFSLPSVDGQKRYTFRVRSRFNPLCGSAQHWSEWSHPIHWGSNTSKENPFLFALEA
Test: BLI (OCTET RED96), receptor on biosensor, IL-2 in solution at 10-2,000 nM, 24 C
Procedure: OCTET® RED96 was used to characterize the interactions of wild-type hL-2 and hhL-2 muteins with CD25, CD122, or CD122/CD132 heterodimer. AVT-TAG CD122/CD132 heterodimer was purchased from ACROBIO. The protein samples were diluted in the OCTET® kinetic buffer. […] The biosensor was then dipped into a solution containing a wild-type hL-2 and IL-2 muteins at 10 to 2,000 nM at 24° C. The association and dissociation sensorgraph was fitted by global or local fitting using the OCTET® Data Analysis HT software.

B1: IL-2-IL-15 Chimera 65 (T3A, I92A, C125S, Q126E) (ligand)
chain: APASSSTKKTQLQLEHLLLDLQMILNGIQSMEIDATTFKFYMPKKATELKHLQCLEEELKPLEEVLNLAQSKNFHLRPRDLISNINVAVLELKGSETTFMCEYADETATIVEFLNRWITFSESIISTLT
How did the Kd turn out when B1 was run?
The Kd was 242 nM.
